doi:10.1101/2024.12.09.627598
pKd: −log10 of the molar value.

molecular target: TLR5^N14, a truncated human TLR5 construct containing only the D1-domain binding sites (human) (UniProt O60602); test: SPR
Sequence of UniProt O60602 (O60602 21-639): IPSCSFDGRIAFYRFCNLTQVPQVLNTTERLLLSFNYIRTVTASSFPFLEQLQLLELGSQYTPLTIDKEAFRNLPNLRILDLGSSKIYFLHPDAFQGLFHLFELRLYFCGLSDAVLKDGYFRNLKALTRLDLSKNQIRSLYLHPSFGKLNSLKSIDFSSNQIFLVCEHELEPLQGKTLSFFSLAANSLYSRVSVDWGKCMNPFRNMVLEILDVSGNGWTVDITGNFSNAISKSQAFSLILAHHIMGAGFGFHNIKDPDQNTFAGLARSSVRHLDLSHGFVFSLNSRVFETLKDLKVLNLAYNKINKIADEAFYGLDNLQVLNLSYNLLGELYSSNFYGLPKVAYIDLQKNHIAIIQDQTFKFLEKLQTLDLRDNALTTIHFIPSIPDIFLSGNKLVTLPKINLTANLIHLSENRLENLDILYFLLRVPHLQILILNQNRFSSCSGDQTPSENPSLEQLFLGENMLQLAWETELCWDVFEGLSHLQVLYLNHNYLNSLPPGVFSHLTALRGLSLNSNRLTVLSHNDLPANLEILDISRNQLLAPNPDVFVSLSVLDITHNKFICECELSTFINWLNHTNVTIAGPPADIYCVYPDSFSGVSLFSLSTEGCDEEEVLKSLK

Substance | pKd | koff | kon
RhFlaB, flagellin FlaB of Roseburia hominis, wild type (recombinant) (from UniProt G2T5W2 1-506) (natural protein) | 7.94 | 0.000555 s⁻¹ | 45200 M⁻¹ s⁻¹
RhFlaB-PIM, primary interface mutant of RhFlaB (Q88A, R89A, Q96A) (from UniProt G2T5W2 1-506) (natural protein) | 7.11 | 0.000691 s⁻¹ | 9090 M⁻¹ s⁻¹
RhFlaB-ΔD0, RhFlaB truncated to remove the D0 domain (domain or fragment) | – | – | 75500 M⁻¹ s⁻¹
StFliC, flagellin FliC of Salmonella enterica serovar Typhimurium, wild type (from UniProt P06179 1-495) (natural protein) | 7.79 | 0.000192 s⁻¹ | 11300 M⁻¹ s⁻¹
StFliC-PIM, primary interface mutant of StFliC (Q89A, R90A, Q97A) (natural protein) | 6.23 | 0.011 s⁻¹ | 18800 M⁻¹ s⁻¹
